Laboratory results: the nanobody polyreactivity screen of Harvey et al. (2022)

Assay: yeast display, Sf9 membrane polyspecificity reagent, FACS + sequencing; frameworks hold sequencing errors
How it was run: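 A synthetic nanobody library was expressed on Saccharomyces cerevisiae BJ5465 by galactose induction for 36–48 hours. The library was stained for 1 hour at 4 °C with 10% biotinylated, detergent-solubilized Sf9 membrane reagent and enriched with streptavidin microbeads before FACS. Low and high (top ~1%) gates were set on anti-HA fluorescence for expression and streptavidin fluorescence for reagent binding, and each polyreactivity label reflects the gate of origin.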

Row | Sequence | polyreactivity (PSR sort gate)
1 | QVQHVESGGGLVQAGGSLRLRCAASGFTFGSYAMGWYRQAPGKERELVASISSAGRTYYADSVKGRITISRDNAKNSVYLQMNSLKPEDTAVYYCNTDARVTIYDYDYWGQGTQVTVSS | low polyreactivity
2 | QVQHVESGGGLVQAGGSLRLRCAASGITSRYNDMGWSRQAPGKERELVATITWRGVSTYYADSVKGRFTISRDNAKNTVYVQMNSLKPEDTAVYYCAARRPGYYPYKGFDYWGQGTQVTVSS | high polyreactivity
3 | QVQHVESGGGLVQAGGSLRLRCAASGRTFKKYAMGWYRQAPGKAWELVAAITGSGGSTYYADSVKGRFTFSRDNAKNTVYLQMNRLKPEDTAVYYCAAYAYGVWQSQDGGNYWGQGTQVTVSS | low polyreactivity
4 | QVQHVESGGGLVQAGGSLRLRCAASGSIFVHNDMGWYRQAPGKERDLVAAISSGSSTNYADSVKGRFTISRDNAKNTVFLQMNSLKPEDTAVYYCAVTSPYSHGYSYWGADSRDYWGQGTQVTVSS | low polyreactivity
5 | QVQHVESGGGLVQAGGSLRLSCAASGFIFDFNAMGRYRPPPGKERELVATISSDGSTNYADSVKGRFTISRDNAKNTVYLQMNSLKPEDTAVYYCNKDSHKDAGTLPGWWYDYWGQGTQVTVSS | low polyreactivity
6 | QVQHVESGGGLVQAGGSLRLSCAASGFIFGVYDMGWYRQAPGKERELVAAIDCVGSTYYADSVKGRFTISRDNAKNTVYLQMNSLKPEDTAGYYCNAARSRLYYDKYYYWGQGTQVTVSS | low polyreactivity
7 | QVQHVESGGGLVQAGGSLRLSCAASGFIFRNYAMGWYRQAPGKERELVAAISSRGGSTYYADSVKGRFTISRDNAKNTVYLQMNRLKPEVTAVYYCARRYFYTYGYWGQGSQVTVSS | high polyreactivity
8 | QVQHVESGGGLVQAGGSLRLSCAASGFIFYDKAMGRYRTAPGKERELVAGITYRTGSTFYADSVKGRFTISRDNAKNTVYLQMISLKPEDTAVFYCAAVRRISWYTPVNTRRYYYWGQGTQVTVSS | high polyreactivity
9 | QVQHVESGGGLVQAGGSLRLSCAASGFIFYIYAMGWYRQAPGKERELVAAITSGGSTYYADSVKGRFTISRDNAKNTVYFQMNSLKPEDTAVFYCNRRSGHVHEYDYWGQGTQVTVSS | low polyreactivity
10 | QVQHVESGGGLVQAGGSLRLSCAASGFIFYKYAMGWYRQAPGKERELVAAISKRGGSTYYADSVKGRFTISRDNAKNTVYLQMNSLKPEDTAVYYCATDGGNSATVRYVASDYWGQGTQVTVSS | high polyreactivity
11 | QVQHVESGGGLVQAGGSLRLSCAASGFNFAYNIMGWYRQAPGKERELVADISGTGSTNYADSVKGRFTISRDNAKNTVYLQMNSLKPEDTAVYYCATSGDRLVWGQGTQVTVSS | low polyreactivity
12 | QVQHVESGGGLVQAGGSLRLSCAASGFTFSKYGMGWYRQAPGKERELVAAISGSGGNTYYADSVKGRFTISRDNAKNTVYLQMNSLKPEDTAVYYCNAEGWRYYYWYHEYGYWGQGTQVTVSS | low polyreactivity
13 | QVQHVESGGGLVQAGGSLRLSCAASGFTFYGNALGWYRQAPGKERELVAAITSGGSTYYADSVKGRFTISRDNAKNTVYLQMNSLKPDDTAVYYCAADEVLYGYEYWGQGTQVTVSS | low polyreactivity
14 | QVQHVESGGGLVQAGGSLRLSCAASGFTFYSYVMGWYRQAPGKERELVAAITRGGSTYYADSVKGRFTISRDNAKNTVYLQMTSLKPEDTAVYYCAKRPSYGYNYWGHGTQVTVSS | low polyreactivity
15 | QVQHVESGGGLVQAGGSLRLSCAASGGTFLANAMGWYRQAPGKERELVAAISWRGGSTRYADSVKGRFTISRDNAKNTVYLQMNSLKPEDTAVYYCAARYLYFTGFYYWGQGTQVTVSS | high polyreactivity
16 | QVQHVESGGGLVQAGGSLRLSCAASGIFFFYGMGWYRQAPGKQRQLLAVISTGDTTDYADSVKGRSTISRDNAKNTVYLQMNSLIPEDTAVYYCAATGRSRSYSWSKLNYWGQGTQVTVSS | low polyreactivity

Row | Sequence | polyreactivity (PSR sort gate)
17 | QVQHVESGGGLVQAGGSLRLSCAASGIIFYDKTMGWYRQAPGKERELVASITWRGGSTYYADSVKGRFTISRDNAKNTVYLQMNSLKPEDTAVYYCNADSSDDYDYWGQGTQVTVSS | low polyreactivity
18 | QVQHVESGGGLVQAGGSLRLSCAASGIIFYDYTMGWYRQAPGKERELVAVITNGDTTYYADSVKGRFTISRDNAKNTVYLQMNSLKPEDTAVYYCAADKRPPYILDYWGQGTQVTVSS | high polyreactivity
19 | QVQHVESGGGLVQAGGSLRLSCAASGITFYRYAMGWYIQAPGKERELVAAINASGGSTYYADSVKGRFTISRDKAKNTVYLQMNSLKPEDTAVYYCAADRVSWVKHYYWGQGTKVTVSS | high polyreactivity
20 | QVQHVESGGGLVQAGGSLRLSCAASGITFYVNDMGWSRQAPGKEREFVAAISYRGGSPYYADSVKGRFTFSRDNAKNTVYLKMNSLKPEDTAVYYCAADYNYWSPHRYDYWGQGTQVTVSS | low polyreactivity
21 | QVQHVESGGGLVQAGGSLRLSCAASGLTFELYAMGWYRQAPGKERELVAAITWSGGRTYDADSVKGRFTISRDNAKNTVYLQMNSLKPEDTAVYYCAADVYPGYVGSQEYDYWGQGTQVTVSS | low polyreactivity
22 | QVQHVESGGGLVQAGGSLRLSCAASGLTFRVYAMGWYRQEPGKERELVAAITGGGGSTYADSVKGRFTISRENAKNTVYLQMNSLNPDDTAVYYCNIKGYYYKFDYWGQGTQVTVSS | low polyreactivity
23 | QVQHVESGGGLVQAGGSLRLSCAASGQIYNQNAMGWYRQAPGKERELVAAISYRGGSTYYADSVKGRFTISRDNAKNTVYLQMNSLKPEDTADYYCAAARSGSGGKQFDHGFNYWGQGTQVTVSS | high polyreactivity
24 | QVQHVESGGGLVQAGGSLRLSCAASGRIFGPYAMGWYRQAPGKEREFVAVITYSSGSTYYADSVKWRFTISRDNAKNTVYLQMNSLKPEDTAVYYCAARLIRSYYYGRYDYWGQGTQVTVSS | high polyreactivity
25 | QVQHVESGGGLVQAGGSLRLSCAASGRIFHYNAMGWYRQAPGKERELVAAITWIGGSTYADSVKGRFTISRDNAKNTVYLQMNSLKPEDTAVYYCNARYIYRFDYWGQGTQVTVSS | low polyreactivity
26 | QVQHVESGGGLVQAGGSLRLSCAASGRIFNLYAMGWYRQAPGKERELVAAIRGRGTSTYYADSVKGRFTISSDNAKNTVFLQINSLKPEDTAVYYCAREGGYGPTLQDTSRYEYCGQGTQVTVSS | low polyreactivity
27 | QVQHVESGGGLVQAGGSLRLSCAASGRIFPFNAMGCYRQAPGKETEFVAAIRLSGTRTYYADSVKGRFTISRDNAKNTVYLQMNCLNPEDTAVYYCAAKFSGHYYNYDYWGQGTQVTVSS | high polyreactivity
28 | QVQHVESGGGLVQAGGSLRLSCAASGRIFSSNAMGWYRQAPGKERELVASITSGGNTNYADSVKGRFTISRDNAKNTVYLQMNSLKPEDTAVYYCAALSKTRCGYWGQGTQVTVSS | high polyreactivity
29 | QVQHVESGGGLVQAGGSLRLSCAASGRIFSTNPMGWSRQAPGKERELVAAITTSGGITYYADSVKGRFTISRDNAKNTVYLQMNSLKPEDTGVYYCNTGYYGRLRDDYWGQGTQVTVSS | high polyreactivity
30 | QVQHVESGGGLVQAGGSLRLSCAASGRIFTYYTMGWYRPAPGKEREFVAAISWSGTSTYYADSVKGRFRISRDNAKNTVYLQMKSLKPEDTAVYSCAARNWYSRYDYWGQGTQVTVSS | high polyreactivity
31 | QVQHVESGGGLVQAGGSLRLSCAASGRIFYAYAMGWYRQAPGKQREMVAAITARGGSTYYADSVKGRFTISRDNAKNTVYLQINSLKPEDTAVYYCAKDTLLETGYEYWGQGTQVTVSS | high polyreactivity
32 | QVQHVESGGGLVQAGGSLRLSCAASGRNFTYYAMGWYRQAPGKERELVAAISGGGITNYADSVKGRFTISRDNAKNTVYLQMNSLKPEDTAVYYCAADQRYRRAFRSRYGSWGQGTQVTVSS | low polyreactivity
